Experimental data as given in patent publication US20190071490A1, “Preventing Post-Ictal Headaches” (Beth Israel Deaconess Medical Center, Inc., priority 2017, published 2019).

Legend:
[1] = molecular target: T1, 38A (25-38A) human α-CGRP (Homo sapiens, UniProt P06881); assay: Biacore affinity of G1 Fab to CGRP variant on chip; assay type: binding; settings: 38A (25-38A) on chip, 37° C.
T1 construct: 25-38A; 24; purchased GenScript Corporation, New Jersey or Global Peptide Services, Colorado
Description: Biacore assay for affinity determination. […] All Biacore assays were conducted in HBS-EP running buffer (10 mM HEPES pH 7.4, 150 mM NaCl, 3 mM EDTA, 0.005% v/v polysorbate P20). CGRP surfaces were prepared by diluting the N-biotinylated CGRP to a concentration of less than 0.001 mg/mL into HBS-EP buffer and injecting it across the SA sensor chip using variable contact times. Low capacity surfaces, corresponding to capture levels <50 response units (RU) were used for high-resolution kinetic studies, whereas high capacity surfaces (about 800 RU of captured CGRP) were used for concentration studies, screening, and solution affinity determinations. […] Samples were typically injected for 1 minute at 100 μL/min and dissociation times of at least 10 minutes were allowed. After each binding cycle, surfaces were regenerated with 25 mM NaOH in 25% v/v ethanol, which was tolerated over hundreds of cycles. An entire titration series (typically generated in duplicate) was fit globally to a 1:1 Langmuir binding model using the BIAevaluation program. This returned a unique pair of association and dissociation kinetic rate constants (respectively, kon and koff) for each binding interaction, whose ratio gave the equilibrium dissociation constant (KD=koff/kon).

[2] = system: CSD-sensitized central trigeminovascular neurons (HT, WDR) in the spinal trigeminal nucleus; assay: Activation and sensitization of trigeminovascular neurons by cortical spreading depression (CSD); assay type: in vivo, rat; settings: for mean firing rate of HT neurons after CSD: 6 hours after 30 mg/kg i.v.; for mean firing rate of HT neurons before CSD: 4 hours after 30 mg/kg i.v.
Description: Cortical spreading depression (CSD) was induced mechanically by inserting a glass micropipette (tip diameter 25 μm) about 1 mm into the visual cortex for 10 sec. At a propagation rate of 3-5 mm/min, a single wave of CSD was expected to enter the neuronal receptive field within 1-2 min of cortical stimulation. For verification of CSD, cortical activity was recorded (electrocorticogram) with a glass micropipette (0.9% saline, ˜1 megohm, 7 um tip) placed just below the surface of the cerebral cortex (approximately 100 μm). The electrocorticogram electrode was positioned about 6 mm anterior to the visual cortex.
It was diluted in saline to a final dose of 30 mg/kg and administered intravenously (bolus injection, total volume 0.6-0.7 ml). A corresponding human IgG2 isotype control antibody (isotype-conAb) was also diluted in saline to a final dose of 30 mg/kg and administered intravenously (bolus injection, total volume 1.6-2.0 ml).
The experimental protocol included two parts. The first part was designed to compare CGRP-mAb vs isotype-conAb effects on spontaneous and induced activity of naïve trigeminovascular neurons, and the second part was designed to test CGRP-mAb vs isotype-conAb effects on the activation and sensitization of trigeminovascular neurons by CSD. Both parts included sampling of WDR and HT neurons in male and female rats. In the first part, the baseline neuronal profile was established by (a) mapping the dural, cutaneous and corneal receptive field; (b) measuring responses (mean spikes/sec) to mechanical stimulation of the dura (with a fixed force), skin (brush, pressure, pinch) and cornea (brush), and (c) measuring spontaneous firing rate (recorded over 30 min prior to treatment). Once the baseline was established, CGRP-mAb or isotype-conAb were administered and receptive fields were remapped, neuronal responses to stimulation of the dura, skin and cornea were re-examined, and the spontaneous activity rate was re-sampled at 1, 2, 3, and 4 hours post-treatment. The resulting values for each measure were then compared with the respective baseline values obtained before treatment. In the second part, CSD was induced 4 hours after administration of CGRP-mAb or isotype-conAb and 2 hours later (i.e., 6 hours after treatment) receptive field size, spontaneous activity rate, and response magnitude to stimulation of the dura, skin and cornea were measured again. The resulting post-CSD values for each measure were then compared with the respective pre-CSD values obtained at the 4-hour post-treatment time. This part was initiated only in cases in which the physiological condition of the rats (heart rate, blood pressure, respiration, end tidal CO2) and the neuronal isolation signal (signal-to-noise ratio ≥1:3) were stable at the 4-hour post-treatment time point.
To calculate the response magnitude to each stimulus, the mean firing frequency occurring before the onset of the first stimulus (30 min for spontaneous activity, 10 sec for mechanical stimulation of the dura, skin and cornea) was subtracted from the mean firing frequency that occurred throughout the duration of each stimulus. […] A neuron was considered activated when its mean firing rate after CSD exceeded its mean baseline activity by 2 standard deviations of that mean for a period >10 min, which translated to ≥33% increase in activity. […] Mean firing rates of respective values were compared using nonparametric statistics (Wilcoxon signed-ranks test). Two-tailed level of significance was set at 0.05.

[3] = male and female rats, case-by-case analysis

B1: G1: humanized monoclonal anti-CGRP antagonist antibody; heavy chain SEQ ID NO:11, light chain SEQ ID NO:12 (antibody)
heavy: EVQLVESGGGLVQPGGSLRLSCAASGFTFSNYWISWVRQAPGKGLEWVAEIRSESDASATHYAEAVKGRFTISRDNAKNSLYLQMNSLRAEDTAVYYCLAYFDYGLAIQNYWGQGTLVTVSSASTKGPSVFPLAPCSRSTSESTAALGCLVKDYFPEPVTVSWNSGALTSGVHTFPAVLQSSGLYSLSSVVTVPSSNFGTQTYTCNVDHKPSNTKVDKTVERKCCVECPPCPAPPVAGPSVFLFPPKPKDTLMISRTPEVTCVVVDVSHEDPEVQFNWYVDGVEVHNAKTKPREEQFNSTFRVVSVLTVVHQDWLNGKEYKCKVSNKGLPSSIEKTISKTKGQPREPQVYTLPPSREEMTKNQVSLTCLVKGFYPSDIAVEWESNGQPENNYKTTPPMLDSDGSFFLYSKLTVDKSRWQQGNVFSCSVMHEALHNHYTQKSLSLSPGK
light: EIVLTQSPATLSLSPGERATLSCKASKRVTTYVSWYQQKPGQAPRLLIYGASNRYLGIPARFSGSGSGTDFTLTISSLEPEDFAVYYCSQSYNYPYTFGQGTKLEIKRTVAAPSVFIFPPSDEQLKSGTASVVCLLNNFYPREAKVQWKVDNALQSGNSQESVTEQDSKDSTYSLSSTLTLSKADYEKHKVYACEVTHQGLSSPVTKSFNRGEC
In the case of B1, the “KD (nM)” value [1] is reported as “No binding detected”, the “difference between CGRP-mAb and isotype-conAb in HT neurons activated by CSD” value ([2]; case-by-case analysis) is reported as 86% and the “difference between CGRP-mAb and isotype-conAb in WDR neurons activated by CSD” value ([2]; case-by-case analysis) is reported as 2%. The “HT neurons with expansion of dural receptive fields after CSD (number/total)” value ([2]; female rats) was 0/6, the “HT neurons with expansion of facial receptive fields after CSD (number/total)” value ([2]; female rats) was 0/6 and the “response of HT neurons to dural indentation with VFH before CSD” value ([2]; female rats) was 10.5±1.6 spikes/sec. For the same molecule, the “response of HT neurons to brushing the cornea after CSD vs before” value ([2]; female rats, 6 HT neurons, p=0.51) was “remained unchanged”, the “mean firing rate of HT neurons after CSD” value ([2]; female rats, 2 hours after CSD) was 5.0±3.4 spikes/sec and the “response of HT neurons to dural indentation with VFH after CSD” value ([2]; female rats, 2 hours after CSD, 6 hours after administration) was 8.1±6.4 spikes/sec. For the same molecule, the “mean firing rate of HT neurons before CSD” value ([2]; female rats) was 3.3±1.7 spikes/sec, the “neuronal responses of HT neurons to brush, pressure and pinch after CSD vs before” value ([2]; male and female rats, 2 hours after CSD, 6 hours after administration) was “remained unchanged” and the “HT neurons activated by CSD (number/total)” value [2, 3] was 2/14. For the same molecule, the “WDR neurons activated by CSD (number/total)” value [2, 3] was 5/13, the “HT neurons with expansion of dural receptive fields after CSD (number/total)” value ([2]; male rats) was 2/8 and the “HT neurons with expansion of facial receptive fields after CSD (number/total)” value ([2]; male rats) was 2/8. For the same molecule, the “response of HT neurons to corneal stimulation after CSD” value ([2]; male rats) was 9.4±1.8 spikes/sec, the “response of HT neurons to corneal stimulation before CSD” value ([2]; male rats) was 10.8±3.3 spikes/sec and the “response of HT neurons to dural indentation with VFH before CSD” value ([2]; male rats) was 1.8±0.6 spikes/sec. The “mean firing rate of HT neurons after CSD” value ([2]; male rats, 2 hours after CSD) was 1.9±1.5 spikes/sec, the “response of HT neurons to dural indentation with VFH after CSD” value ([2]; male rats, 2 hours after CSD, 6 hours after administration) was 1.9±1.5 spikes/sec and the “mean firing rate of HT neurons before CSD” value ([2]; male rats) was 1.2±0.6 spikes/sec.
